Patent publication US20220339270A1 (published 2022)

B1: IPN002 antibody expressed from CAG-IPN002-HF.T2AL (TAU_ITR1) (antibody, V domains shown)
VH: EVHLVESGGALVKPGGSLKLSCAASGFSFSKYGMSWVRQTPDKRLEWVATISSSGSRTYYPDSVKGQFTISRDNAKNTLYLQMSSLKSEDTAMYYCSISWDGAMDYWGQGTSVTVSS
VL: DVLMTQTPLSLPVSLGDQASISCKSSQSIVHSNGNTYLEWYLQKPGQSPKLLVYKVSNRFSGVPDRFSGSGSGTDFTLKISRVEAEDLGTYYCFQGSLVPWAFGGGTKLEIK
B2: IPN002 Fab expressed from TAU_ITR127 (CAG, HF.T2AL) (Fab, V domains shown)
VH: B1 VH
VL: B1 VL
B3: IPN002 antibody expressed from CAG-IPN002-LF2AH (TAU_ITR9) (antibody, V domains shown)
VH: B1 VH
VL: B1 VL
B4: IPN002 antibody expressed from CB6-IPN002-LT2AH (TAU_ITR87) (antibody, V domains shown)
VH: B1 VH
VL: B1 VL
notes: Full antibody
B5: IPN002 Fab_ext expressed from TAU_ITR130 (CAG, LT2AH) (Fab, V domains shown)
VH: B1 VH
VL: B1 VL
notes: Extended Fab
B6: IPN002 Fab_ext expressed from TAU_ITR128 (CAG, HF.T2AL) (Fab, V domains shown)
VH: B1 VH
VL: B1 VL
B7: IPN002 Fab_ext expressed from TAU_ITR129 (CBA, hGbin, LT2AH) (Fab, V domains shown)
VH: B1 VH
VL: B1 VL
notes: Extended Fab
B8: IPN002 antibody expressed from CAG-IPN002-HF.F2AL (TAU_ITR2) (antibody, V domains shown)
VH: B1 VH
VL: B1 VL
B9: IPN002 antibody expressed from CB6-IPN002-HF.F2AL (TAU_ITR3) (antibody, V domains shown)
VH: B1 VH
VL: B1 VL
B10: IPN002 antibody expressed from CB6-IPN002-HF.T2AL (TAU_ITR4) (antibody, V domains shown)
VH: B1 VH
VL: B1 VL
B11: IPN002 Fab_ext expressed from TAU_ITR124 (CBA, hGbin, HF.T2AL) (Fab, V domains shown)
VH: B1 VH
VL: B1 VL
B12: IPN002 antibody expressed from CB6-IPN002-LF2AH (TAU_ITR11) (antibody, V domains shown)
VH: B1 VH
VL: B1 VL
B13: IPN002 antibody expressed from CAG-IPN002-LT2AH (TAU_ITR10) (antibody, V domains shown)
VH: B1 VH
VL: B1 VL
notes: Full antibody
B14: IPN002 Fab expressed from TAU_ITR123 (CBA, hGbin, HF.T2AL) (Fab, V domains shown)
VH: B1 VH
VL: B1 VL
B15: anti-tau antibody MC1 expressed from viral genome construct MC1HIRESL (TAU_ITR75; SEQ ID NO: 2064) (antibody, mouse IgG1, kappa, V domains shown)
VH: QVQLQQSGAELMKPGASVKISCKATGYTFSNYWIEWVKQRPGHGLEWIGEILPGSDSIKYNENFKGKATFTADTSSNTAYMQLSSLTSEDSAVYYCARRGNYPDYWGQGTTLTVSS
VL: DVVMTQTPLSLPVSLGDQASISCRSSQSLVHSNGNTYLHWYLQKPGQSPKLLIYKVSNRFSGVPDRFSGSGSGTDFTLKISRVEAEDLGVYFCSQSTHVPLTFGAGTKLELKR
B16: anti-tau antibody MC1 expressed from viral genome construct MC1LF.F2AH (TAU_ITR78; SEQ ID NO: 2067) (antibody, V domains shown)
VH: B15 VH
VL: B15 VL
B17: anti-tau antibody MC1 expressed from viral genome construct MC1LIRESH (TAU_ITR80; SEQ ID NO: 2069) (antibody, mouse IgG1, kappa, V domains shown)
VH: B15 VH
VL: B15 VL
B18: anti-tau antibody MC1 expressed from viral genome construct MC1LP2AH (TAU_ITR82; SEQ ID NO: 2071) (antibody, V domains shown)
VH: B15 VH
VL: B15 VL
B19: anti-tau antibody MC1 expressed from viral genome construct MC1HF.F2AL (TAU_ITR72; SEQ ID NO: 2061) (antibody, V domains shown)
VH: B15 VH
VL: B15 VL
B20: anti-tau antibody MC1 expressed from viral genome construct MC1LF.P2AH (TAU_ITR83; SEQ ID NO: 2072) (antibody, V domains shown)
VH: B15 VH
VL: B15 VL
B21: anti-tau antibody MC1 expressed from viral genome construct MC1LF2AH (TAU_ITR79; SEQ ID NO: 2068) (antibody, V domains shown)
VH: B15 VH
VL: B15 VL
B22: anti-tau antibody MC1 expressed from viral genome construct MC1HF.P2AL (TAU_ITR73; SEQ ID NO: 2062) (antibody, V domains shown)
VH: B15 VH
VL: B15 VL

Legend:
[1] = biological target: T1, wild-type tau (441 amino acids; tau441; NP_005901.2) (human, UniProt P10636 1-758); assay: wild-type tau ELISA, ExpiCHO supernatant
T1 construct: Unphosphorylated recombinant tau441 used in the wild-type tau ELISA; also called wt tau441; wtTau

[2] = biological target: T1, wild-type tau (441 amino acids; tau441; …); assay: wtTau ELISA
[3] = biological target: T2, extracellular tau in the form of paired helical filaments (ePHF tau) (UniProt P10636-8 1-441, limits assumed); assay: ePHF tau ELISA, ePHF coated; antibody at 55.6 ng/ml; anti-mouse-HRP
T2 construct: Aggregated, hyperphosphorylated tau preparation; not a single defined polypeptide

[4] = biological target: T2, extracellular tau in the form of paired …; assay: ePHF tau ELISA, ePHF coated; antibody at 500.0 ng/ml; anti-mouse-HRP
[5] = biological target: T2, extracellular tau in the form of paired …; assay: ePHF tau ELISA, ePHF coated; antibody at 18.5 ng/ml; anti-mouse-HRP
[6] = biological target: T2, extracellular tau in the form of paired …; assay: ePHF tau ELISA, ePHF coated; antibody at 6.2 ng/ml; anti-mouse-HRP
[7] = biological target: T2, extracellular tau in the form of paired …; assay: ePHF tau ELISA, ePHF coated; antibody at 1000.0 ng/ml; anti-mouse-HRP
[8] = biological target: T2, extracellular tau in the form of paired …; assay: ePHF tau ELISA, ePHF coated; antibody at 0.7 ng/ml; anti-mouse-HRP
[9] = biological target: T2, extracellular tau in the form of paired …; assay: ePHF tau ELISA, ePHF coated; antibody at 166.7 ng/ml; anti-mouse-HRP
[10] = biological target: T2, extracellular tau in the form of paired …; assay: ePHF tau ELISA, ePHF coated; antibody at 2.1 ng/ml; anti-mouse-HRP

T1 sequence (P10636 other isoform, or with tags, fused parts or gaps limits assumed): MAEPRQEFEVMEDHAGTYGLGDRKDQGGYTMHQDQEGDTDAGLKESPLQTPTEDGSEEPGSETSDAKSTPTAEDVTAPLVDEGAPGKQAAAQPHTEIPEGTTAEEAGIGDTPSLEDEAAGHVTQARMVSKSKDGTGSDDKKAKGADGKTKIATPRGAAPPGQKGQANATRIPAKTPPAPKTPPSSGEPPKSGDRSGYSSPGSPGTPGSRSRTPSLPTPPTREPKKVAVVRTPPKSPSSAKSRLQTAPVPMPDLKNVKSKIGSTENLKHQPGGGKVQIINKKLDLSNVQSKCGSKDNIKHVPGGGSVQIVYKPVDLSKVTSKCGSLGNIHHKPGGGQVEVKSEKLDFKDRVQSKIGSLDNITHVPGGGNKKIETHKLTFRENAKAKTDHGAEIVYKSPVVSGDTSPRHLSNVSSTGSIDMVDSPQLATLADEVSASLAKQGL
T2 sequence (P10636 other isoform, or with tags, fused parts or gaps limits assumed): as above

Binder | binding result [1] | binding result [2] | OD450 [3] | OD450 [4] | OD450 [5] | OD450 [6] | OD450 [7] | OD450 [8] | OD450 [9] | OD450 [10]
B1 | binds |  |  |  |  |  |  |  |  | 
B2 |  | binds |  |  |  |  |  |  |  | 
B3 | binds |  |  |  |  |  |  |  |  | 
B4 | binds |  |  |  |  |  |  |  |  | 
B5 |  | binds |  |  |  |  |  |  |  | 
B6 |  | binds |  |  |  |  |  |  |  | 
B7 |  | binds |  |  |  |  |  |  |  | 
B8 | binds |  |  |  |  |  |  |  |  | 
B9 | binds |  |  |  |  |  |  |  |  | 
B10 | binds |  |  |  |  |  |  |  |  | 
B11 |  | binds |  |  |  |  |  |  |  | 
B12 | binds |  |  |  |  |  |  |  |  | 
B13 | binds |  |  |  |  |  |  |  |  | 
B14 |  | binds |  |  |  |  |  |  |  | 
B15 |  |  | 0.2 OD450 | 0.7 OD450 | 0.1 OD450 | 0.1 OD450 | 1 OD450 | 0.1 OD450 | 0.3 OD450 | 0.1 OD450
B16 |  |  | 0.4 OD450 | 1 OD450 | 0.2 OD450 | 0.1 OD450 | 1.1 OD450 | 0.1 OD450 | 0.7 OD450 | 0.1 OD450
B17 |  |  | 0.3 OD450 | 0.9 OD450 | 0.2 OD450 | 0.1 OD450 | 1 OD450 | 0.1 OD450 | 0.6 OD450 | 0.1 OD450
B18 |  |  | 0.2 OD450 | 0.7 OD450 | 0.1 OD450 | 0.1 OD450 | 0.8 OD450 | 0.1 OD450 | 0.4 OD450 | 0.1 OD450
B19 |  |  | 0.5 OD450 | 1 OD450 | 0.3 OD450 | 0.2 OD450 | 1.1 OD450 | 0.1 OD450 | 0.7 OD450 | 0.1 OD450
B20 |  |  | 0.1 OD450 | 0.4 OD450 | 0.1 OD450 | 0.1 OD450 | 0.6 OD450 | 0.1 OD450 | 0.2 OD450 | 0.1 OD450
B21 |  |  | 0.4 OD450 | 1 OD450 | 0.2 OD450 | 0.1 OD450 | 1.1 OD450 | 0.1 OD450 | 0.7 OD450 | 0.1 OD450
B22 |  |  | 0.4 OD450 | 0.9 OD450 | 0.2 OD450 | 0.1 OD450 | 0.9 OD450 | 0.1 OD450 | 0.6 OD450 | 0.1 OD450
